Values quoted from earlier work in article PMC4845744.
pKd: −log10 of the molar value.

Biological target: MutLα (Homo sapiens) (UniProt P40692)
Sequence (P40692 2-756, chain 1 of 2): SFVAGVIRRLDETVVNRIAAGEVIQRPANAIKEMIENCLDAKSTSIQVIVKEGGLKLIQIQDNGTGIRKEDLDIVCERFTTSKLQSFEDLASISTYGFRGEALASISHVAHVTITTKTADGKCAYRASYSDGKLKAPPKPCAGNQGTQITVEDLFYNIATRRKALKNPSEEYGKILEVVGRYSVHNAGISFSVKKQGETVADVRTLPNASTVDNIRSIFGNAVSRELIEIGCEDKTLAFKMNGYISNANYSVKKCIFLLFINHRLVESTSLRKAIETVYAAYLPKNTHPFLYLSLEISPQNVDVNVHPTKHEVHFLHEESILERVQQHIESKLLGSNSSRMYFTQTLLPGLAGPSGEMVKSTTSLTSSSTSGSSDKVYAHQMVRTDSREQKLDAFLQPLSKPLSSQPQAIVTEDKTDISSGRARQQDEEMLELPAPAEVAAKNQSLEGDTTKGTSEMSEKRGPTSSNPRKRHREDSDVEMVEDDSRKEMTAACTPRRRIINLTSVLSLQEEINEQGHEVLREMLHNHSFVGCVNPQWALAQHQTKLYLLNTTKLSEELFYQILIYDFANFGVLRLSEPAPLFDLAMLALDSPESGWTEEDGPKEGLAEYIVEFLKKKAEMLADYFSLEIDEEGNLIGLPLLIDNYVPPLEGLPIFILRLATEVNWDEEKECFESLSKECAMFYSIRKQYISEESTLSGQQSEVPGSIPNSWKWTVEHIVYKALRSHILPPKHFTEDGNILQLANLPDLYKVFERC
Sequence (P54278 whole entry, chain 2 of 2, further chain): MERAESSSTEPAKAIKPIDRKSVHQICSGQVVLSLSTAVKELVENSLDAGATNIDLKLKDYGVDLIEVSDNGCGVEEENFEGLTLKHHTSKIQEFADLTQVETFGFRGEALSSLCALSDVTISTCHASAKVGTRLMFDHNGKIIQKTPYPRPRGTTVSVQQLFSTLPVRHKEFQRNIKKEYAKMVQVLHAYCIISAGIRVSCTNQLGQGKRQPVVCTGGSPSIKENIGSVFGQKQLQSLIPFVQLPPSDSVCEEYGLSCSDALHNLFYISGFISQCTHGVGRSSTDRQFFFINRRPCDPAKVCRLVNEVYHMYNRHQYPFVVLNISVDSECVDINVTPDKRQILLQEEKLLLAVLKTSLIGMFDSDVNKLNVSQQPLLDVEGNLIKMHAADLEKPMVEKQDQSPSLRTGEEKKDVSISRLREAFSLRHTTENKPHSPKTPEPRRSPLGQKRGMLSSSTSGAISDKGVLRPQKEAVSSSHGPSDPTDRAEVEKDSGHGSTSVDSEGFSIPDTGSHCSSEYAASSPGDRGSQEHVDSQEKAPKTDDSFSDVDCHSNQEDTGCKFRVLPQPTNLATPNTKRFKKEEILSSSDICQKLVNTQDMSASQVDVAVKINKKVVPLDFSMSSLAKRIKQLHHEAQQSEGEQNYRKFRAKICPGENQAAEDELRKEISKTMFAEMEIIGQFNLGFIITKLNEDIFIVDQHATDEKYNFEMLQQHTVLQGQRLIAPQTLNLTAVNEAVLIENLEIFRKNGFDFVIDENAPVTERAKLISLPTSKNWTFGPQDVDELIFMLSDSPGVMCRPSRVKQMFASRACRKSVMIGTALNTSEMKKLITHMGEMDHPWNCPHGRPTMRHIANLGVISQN

## MutSβ (from UniProt P43246)
  pKd: 6.60
